This assay deals with actively translating polysomes (cytosolic ribosomes) (human (endogenous in HeLa, HT29)). Put plainly: co-sedimentation.

B1: TRAP1 (endogenous) (natural protein)
chain: STQTAEDKEEPLHSIISSTESVQGSTSKHEFQAETKKLLDIVARSLYSEKEVFIRELISNASDALEKLRHKLVSDGQALPEMEIHLQTNAEKGTITIQDTGIGMTQEELVSNLGTIARSGSKAFLDALQNQAEASSKIIGQFGVGFYSAFMVADRVEVYSRSAAPGSLGYQWLSDGSGVFEIAEASGVRTGTKIIIHLKSDCKEFSSEARVRDVVTKYSNFVSFPLYLNGRRMNTLQAIWMMDPKDVREWQHEEFYRYVAQAHDKPRYTLHYKTDAPLNIRSIFYVPDMKPSMFDVSRELGSSVALYSRKVLIQTKATDILPKWLRFIRGVVDSEDIPLNLSRELLQESALIRKLRDVLQQRLIKFFIDQSKKDAEKYAKFFEDYGLFMREGIVTATEQEVKEDIAKLLRYESSALPSGQLTSLSEYASRMRAGTRNIYYLCAPNRHLAEHSPYYEAMKKKDTEVLFCFEQFDELTLLHLREFDKKKLISVETDIVVDHYKEEKFEDRSPAAECLSEKETEELMAWMRNVLGSRVTNVKVTLRLDTHPAMVTVLEMGAARHFLRMQQLAKTQEERAQLLQPTLEINPRHALIKKLNQLRASEPGLAQLLVDQIYENAMIAAGLVDDPRAMVGRLNELLVKALERH
In turn, B1 yielded a percent of total TRAP1 in the polysomal fractions greater than 0.7%.

The values are drawn from PMC10547376.
